Results published in PMC4866497.
Where two headings read alike, the source gives them in different places. Blank lines part the entries; values can stand above or below the substance they belong to.

Experiments:
[1] = molecular target: EGFR domain 3 - Fc, wild-type CH3; assay: FRET or BRET
[2] = test system: MetMab full heavy chain with K409D K392D, with MetMab light chain; assay: SEC
[3] = test system: MetMab full heavy chain with K409D K392D, with MetMab light chain; assay: SEC; remark: listed apart in the source
[4] = test system: MetMab full heavy chain with Y349S K370Y T366M K409V, with MetMab light chain; assay: SEC
[5] = test system: MetMab full heavy chain with Y349S K370Y T366M K409V, with MetMab light chain; assay: SEC; remark: listed apart in the source
[6] = test system: MetMab full heavy chain with Y349S K370Y T366V K409V, with MetMab light chain; assay: SEC
[7] = test system: MetMab full heavy chain with Y349S K370Y T366V K409V, with MetMab light chain; assay: SEC; remark: listed apart in the source
[8] = test system: MetMab full heavy chain with D399K E356K, with MetMab light chain; assay: SEC
[9] = test system: MetMab full heavy chain with D399K E356K, with MetMab light chain; assay: SEC; remark: listed apart in the source
[10] = test system: MetMab full heavy chain with T366W, with MetMab light chain; assay: SEC
[11] = test system: MetMab full heavy chain with T366W, with MetMab light chain; assay: SEC; remark: listed apart in the source
[12] = test system: MetMab full heavy chain with T366S L358V Y407A, with MetMab light chain; assay: SEC
[13] = test system: MetMab full heavy chain with T366S L358V Y407A, with MetMab light chain; assay: SEC; remark: listed apart in the source
[14] = test system: MetMab full heavy chain with E356G E357D S364Q Y407A, with MetMab light chain; assay: SEC
[15] = test system: MetMab full heavy chain with E357D S364R Y407A, with MetMab light chain; assay: SEC
[16] = test system: MetMab full heavy chain with E356G E357D S364Q Y407A, with MetMab light chain; assay: SEC; remark: listed apart in the source
[17] = test system: MetMab full heavy chain with E357D S364R Y407A, with MetMab light chain; assay: SEC; remark: listed apart in the source
[18] = test system: MetMab full heavy chain with E357D S364Q Y407A, with MetMab light chain; assay: SEC
[19] = test system: MetMab full heavy chain with E357D S364Q Y407A, with MetMab light chain; assay: SEC; remark: listed apart in the source
[20] = test system: MetMab full heavy chain with wild-type CH3, with MetMab light chain [IgG part: P01857]; assay: SEC
[21] = test system: MetMab full heavy chain with wild-type CH3, with MetMab light chain [IgG part: P01857]; assay: SEC; remark: listed apart in the source
IgG1 Fc, wild-type CH3 = assay: SEC
[22] = molecular target: MetMab full heavy chain with T350V L351Y F405A Y407V, with MetMab light chain; assay: SEC
[23] = molecular target: MetMab full heavy chain with T350V T366L K392L T394W, with MetMab light chain; assay: SEC
[24] = molecular target: MetMab full heavy chain with T366V K409V, with MetMab light chain; assay: SEC
[25] = molecular target: MetMab full heavy chain with T366V K409V, with MetMab light chain; assay: SEC; remark: listed apart in the source
[26] = molecular target: MetMab full heavy chain with wild-type CH3, with MetMab light chain [IgG part: P01857]; assay: SEC; remark: listed apart in the source
[27] = test system: EGFR domain 3 - Fc with K409D K392D; assay: FRET or BRET
[28] = test system: EGFR domain 3 - Fc with Y349S K370Y T366M K409V; assay: FRET or BRET
[29] = test system: EGFR domain 3 - Fc with Y349S K370Y T366V K409V; assay: FRET or BRET
[30] = test system: EGFR domain 3 - Fc with T366W; assay: FRET or BRET
[31] = molecular target: VEGFR1 domain 3 - Fc, wild-type CH3; assay: FRET or BRET

- % AA homodimer (co-expressed with m42) [1]: 24.2%
Substance: EGFR domain 3 - Fc, wild-type CH3 (Fc fusion)

Substance: IgG1 Fc with D399K E356K
- % AB heterodimer [2]: 37.5%
- % AB heterodimer [3]: 91.7%

Substance: IgG1 Fc with E356G E357D S364Q Y407A
- % AB heterodimer [4]: 23.6%
- % AB heterodimer [5]: 83.8%

Substance: IgG1 Fc with E357D S364Q Y407A
- % AB heterodimer [6]: 11.7%
- % AB heterodimer [7]: 84.9%

Substance: IgG1 Fc with E357D S364R Y407A
- % AB heterodimer [4]: 34.7%
- % AB heterodimer [5]: 83.5%

Substance: IgG1 Fc with K409D K392D
- % AB heterodimer [8]: 29.4%
- % AB heterodimer [9]: 93.6%

Substance: IgG1 Fc with T366S L358V Y407A
- % AB heterodimer [10]: 35%
- % AB heterodimer [11]: 92.4%

Substance: IgG1 Fc with T366W
- % AB heterodimer [12]: 33.1%
- % AB heterodimer [13]: 94.1%

Substance: IgG1 Fc with Y349S K370Y T366M K409V
- % AB heterodimer [14]: 31.8%
- % AB heterodimer [15]: 29.9%
- % AB heterodimer [16]: 94.2%
- % AB heterodimer [17]: 85.5%

Substance: IgG1 Fc with Y349S K370Y T366V K409V
- % AB heterodimer [18]: 4.7%
- % AB heterodimer [19]: 92.5%

Substance: IgG1 Fc, wild-type CH3
- % AB heterodimer [20]: 27.4%
- % AB heterodimer [21]: 51.3%

- % BB homodimer (co-expressed with m1) (IgG1 Fc, wild-type CH3): 15.9%
Substance: IgG1 Fc, wild-type CH3 (domain or fragment)

- % AA homodimer (co-expressed with m18) [8]: 11.3%
Substance: MetMab full heavy chain with D399K E356K, with MetMab light chain (complex)

- % AA homodimer (co-expressed with m19) [2]: 19.9%
Substance: MetMab full heavy chain with K409D K392D, with MetMab light chain (complex)

- % AA homodimer (co-expressed with m22) [22]: 9%
Substance: MetMab full heavy chain with T350V L351Y F405A Y407V, with MetMab light chain (complex)

- % AA homodimer (co-expressed with m23) [23]: 5.1%
Substance: MetMab full heavy chain with T350V T366L K392L T394W, with MetMab light chain (complex)

- % AA homodimer (co-expressed with m24) [24]: 28.6%
- % AA long dimer (co-expressed with m24) [24]: 24.1%
- % AA homodimer (co-expressed with m24) [25]: 4.1%
- % AA long dimer (co-expressed with m24) [25]: 3.8%
Substance: MetMab full heavy chain with T366V K409V, with MetMab light chain (complex)

- % AA homodimer (co-expressed with m21) [10]: 15.7%
Substance: MetMab full heavy chain with T366W, with MetMab light chain (complex)

- % AA homodimer (co-expressed with m17) [20]: 65%
- % AA homodimer (co-expressed with m17) [26]: 31.3%
Substance: MetMab full heavy chain with wild-type CH3, with MetMab light chain (from UniProt P01857 1-399) (complex)

Substance: VEGFR1 domain 3 - Fc with D399K E356K
- % AB heterodimer [27]: 96.2%

Substance: VEGFR1 domain 3 - Fc with E356G E357D S364Q Y407A
- % AB heterodimer [28]: 93.9%

Substance: VEGFR1 domain 3 - Fc with E357D S364Q Y407A
- % AB heterodimer [29]: 93.3%

Substance: VEGFR1 domain 3 - Fc with T366S L358V Y407A
- % AB heterodimer [30]: 96.2%

Substance: VEGFR1 domain 3 - Fc, wild-type CH3
- % AB heterodimer [1]: 61.2%

- % BB homodimer (co-expressed with m35) [31]: 14.6%
Substance: VEGFR1 domain 3 - Fc, wild-type CH3 (Fc fusion)
